In article PMC4382112:

How the values were obtained:
[1] = molecular target: soluble murine EPCR with a C-terminal myc-His tag (murine) (UniProt Q64695); assay: ELISA; plate binding assay: soluble murine EPCR (5 μg/ml) captured by immobilised anti-myc monoclonal antibody; murine protein C variants 0 to 1200 nM in TBS-1% BSA, 5mM CaCl2, 0.6mM MgCl2, 2 hours at 37°C with shaking; detected with sheep anti-murine protein C; one-site fit, apparent KD (KD(app)); n = 3
[2] = molecular target: human APC(5A) (human)

Chain of UniProt Q64695 (Q64695 18-214): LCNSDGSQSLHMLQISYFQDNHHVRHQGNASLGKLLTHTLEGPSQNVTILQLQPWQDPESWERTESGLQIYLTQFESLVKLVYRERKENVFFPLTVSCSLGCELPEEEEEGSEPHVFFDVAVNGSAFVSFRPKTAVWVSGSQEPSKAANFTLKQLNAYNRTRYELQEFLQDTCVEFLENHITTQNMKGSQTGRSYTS

Row | Molecule | Kd [1] | inactivation of 20nM human APC variant by 200nM PCI at 37°C, residual APC activity on S-2366 over 0–20 minutes; half-life [2]
1 | murine protein C(S360A) (natural protein) | 129 nM | –
2 | human recombinant protein C inhibitor (PCI) (natural protein) EMKKRVEDLHVGATVAPSSRRDFTFDLYRALASAAPSQSIFFSPVSISMSLAMLSLGAGSSTKMQILEGLGLNLQKSSEKELHRGFQQLLQELNQPRDGFQLSLGNALFTDLVVDLQDTFVSAMKTLYLADTFPTNFRDSAGAMKQINDYVAKQTKGKIVDLLKNLDSNAVVIMVNYIFFKAKWETSFNHKGTQEQDFYVTSETVVRVPMMSREDQYHYLLDRNLSCRVVGVPYQGNATALFILPSEGKMQQVENGLSEKTLRKWLKMFKKRQLELYLPKFSIEGSYQLEKVLPSLGISNVFTSHADLSGISNHSNIQVSEMVHKAVVEVDESGTRAAAATGTIFTFRSARLNSQRLVFNRPFLMFIVDNNILFLGKVNRP | – | 4 min

The next lines start with the values.

Row | Kd [1] | inactivation of 20nM human APC variant by 200nM PCI at 37°C, residual APC activity on S-2366 over 0–20 minutes; half-life [2] | Molecule
3 | 94.3 nM | – | plasma-derived murine protein C (natural protein)
4 | 112 nM | – | recombinant murine wt protein C (natural protein)
